# In publication PMC4073494:
# Tests used:
# EED (Homo sapiens) = EED (Homo sapiens) (UniProt O75530); conditions: cited from earlier work
# [1] = molecular target: purified full-length EED (AlphaScreen) (UniProt O75530); assay: AlphaScreen or HTRF
# purified full-length EED (AlphaScreen), sequence (O75530 whole entry): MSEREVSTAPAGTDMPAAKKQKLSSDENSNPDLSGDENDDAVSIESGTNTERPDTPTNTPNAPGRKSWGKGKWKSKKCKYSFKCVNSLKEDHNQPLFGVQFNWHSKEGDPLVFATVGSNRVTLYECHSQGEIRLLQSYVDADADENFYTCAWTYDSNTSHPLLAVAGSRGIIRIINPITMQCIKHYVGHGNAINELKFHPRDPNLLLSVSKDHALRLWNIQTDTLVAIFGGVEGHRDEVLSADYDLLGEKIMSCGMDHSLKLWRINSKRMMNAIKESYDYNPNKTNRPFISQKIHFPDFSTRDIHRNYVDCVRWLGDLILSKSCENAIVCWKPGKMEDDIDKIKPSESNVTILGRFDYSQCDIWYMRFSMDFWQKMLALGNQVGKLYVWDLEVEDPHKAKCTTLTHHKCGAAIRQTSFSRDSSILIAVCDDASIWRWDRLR
# EED (Homo sapiens), sequence (O75530 2-441): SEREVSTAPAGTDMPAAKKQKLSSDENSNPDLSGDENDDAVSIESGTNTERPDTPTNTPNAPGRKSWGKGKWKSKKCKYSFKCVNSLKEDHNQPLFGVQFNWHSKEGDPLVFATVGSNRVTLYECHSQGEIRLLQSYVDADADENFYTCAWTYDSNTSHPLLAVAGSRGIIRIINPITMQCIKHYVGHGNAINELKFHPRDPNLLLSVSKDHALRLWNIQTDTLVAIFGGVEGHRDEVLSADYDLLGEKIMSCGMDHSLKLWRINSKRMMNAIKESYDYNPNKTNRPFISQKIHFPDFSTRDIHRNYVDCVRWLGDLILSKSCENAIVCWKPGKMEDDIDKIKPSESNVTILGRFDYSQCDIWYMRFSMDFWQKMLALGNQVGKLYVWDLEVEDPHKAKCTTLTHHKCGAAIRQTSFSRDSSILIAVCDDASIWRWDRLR
# EZH2 39-68, sequence (Q15910 39-68): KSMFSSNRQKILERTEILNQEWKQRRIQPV
EC50 [1] [nM],Substance,Kd (EED (Homo sapiens)) [nM]
–,EZH2 39-68 (from UniProt Q15910),380
605,unlabeled full-length RING1B (from UniProt Q99496 1-336) (natural protein),–
